Data reported in patent US20190077858A1 (KM BIOLOGICS, published 2019).
Where a chain is given by its changes, count along the chain named.

Columns and labels:
[1] = biological target: T1, human IL-18 (MBL Medical & Biological Laboratories, Co., Ltd.) (human, UniProt Q14116 37-193, biotinylated (Biotin-PEAC5-maleimide or Biotin-AC5 Sulfo-OSu) in the streptavidin plate ELISAs and the panning; not labelled in the receptor binding and KG-1 assays); assay: flow cytometry, blocking: human IL-18 100 ng/mL pre-mixed with the antibody, added to KG-1 cells, bound IL-18 detected with biotinylated 125-2H and streptavidin-PE; blocked partner: native IL-18 receptor [b]
T1 construct: Bought protein; also called human interleukin-18; biotinylated human IL-18
T1 sequence (looked up): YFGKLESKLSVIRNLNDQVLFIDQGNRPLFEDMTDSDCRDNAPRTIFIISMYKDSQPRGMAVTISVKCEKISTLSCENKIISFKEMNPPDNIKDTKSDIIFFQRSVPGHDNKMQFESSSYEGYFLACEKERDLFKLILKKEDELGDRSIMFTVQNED
Protocol: Human IL-18 (MBL Medical & Biological Laboratories, Co., Ltd.) was diluted to 100 ng/mL with 1% BSA-PBS-0.05% NaN₃-2% rabbit serum, mixed with the obtained anti-IL-18 antibody, and incubated at room temperature for 60 minutes. Then, the human IL-18/anti-IL-18 antibody mixed solution was added to KG-1 cells (1×10⁵ cells) cultured by a standard technique (e.g., a medium in which an RPMI1640 medium was supplemented with 10% bovine serum, 2 mM L-glutamine, 50 U/mL penicillin, and 50 μg/mL streptomycin), and reacted on ice. After 30 minutes, the supernatant was removed by centrifugation (1200 rpm, 3 min, 4° C.), and a biotinylated anti-IL-18 antibody 125-2H (MBL Medical & Biological Laboratories, Co., Ltd.) not inhibiting the binding between IL-18 and IL-18 receptor was added thereto and reacted on ice. After 30 minutes, the supernatant was removed by centrifugation (1200 rpm, 3 min, 4° C.), and streptavidin-PE (BD Becton, Dickinson and Company) was added thereto and reacted on ice for 30 minutes. After the reaction, the supernatant was removed by centrifugation (1200 rpm, 3 min, 4° C.), and the KG-1 cells were floated with 1% BSA-PBS-0.05% NaN₃-2% rabbit serum. The fluorescence intensity in the reacted KG-1 cells was measured using FACScan (BD Becton, Dickinson and Company).

[2] = biological target: T2, K53A variant of human IL-18 (human, UniProt Q14116 37-193, K53A, biotinylated); assay: ELISA on immobilised biotinylated K53A IL-18, antibody at 1 µg/mL
T2 construct: On the precursor entry the residue at 53 may not be K; the numbering is likely that of mature IL-18
T2 sequence (looked up): T1 sequence (looked up) with K53A
Protocol: Next, these human IL-18 proteins were biotinylated, then each diluted to 1 μg/mL with PBS (Sigma-Aldrich Corp.), added at 100 μL/well to Streptavidin plates (Nunc), and incubated at room temperature for 2 hours to immobilize them. After the immobilization, the plates were washed with PBST, and human IL-18BPa-hFc (R&D Systems, Inc.) or the IgG molecule-type 4A6D was prepared at 1 μg/mL with 1% BSA-PBS, added at 100 μL/well to the plates, and incubated at 37° C. After 1 hour, the plates were washed with PBST, and a detection antibody anti-hFc/HRP (Cosmo Bio Co., Ltd., The binding site) was added at 100 μL/well to the plates and incubated at 37° C. After 1 hour, the plates were washed with PBST, and TMB (Sigma-Aldrich Corp.) was added at 100 μL/well to the plates to develop color. After 30 minutes, the reaction was terminated with 1 M sulfuric acid, and the color values (O.D. 450 nm/650 nm) were measured using a microplate reader (Molecular Devices, Inc.).

[3] = biological target: T1, human IL-18 (MBL Medical & Biological …); assay: cell-based or functional assay
[4] = biological target: T1, human IL-18 (MBL Medical & Biological …); assay: ELISA, biotinylated human IL-18 on streptavidin plate, HRP detection antibody, O.D. 450nm/650nm
Protocol: The binding activity of the obtained scFv phages, scFv, and IgG prepared by a standard method (conventional method) was evaluated by ELISA. The biotinylated human IL-18 or the biotinylated mouse IL-18 was diluted to 1 μg/mL with PBS (Sigma-Aldrich Corp.), added at 100 μL/well to Streptavidin plates (Nunc), and incubated at room temperature for 2 hours to immobilize the IL-18. After the immobilization, the plates were washed with PBST, and each obtained scFv phage, scFv, or IgG was added at 100 μL/well to the plates and incubated at 37° C. After 1 hour, the plates were washed with PBST, and a detection antibody anti-M13/HRP (GE Healthcare Japan Corp.), anti-His tag/HRP (Bethyl Laboratories, Inc.), anti-V5 tag/HRP (Bethyl Laboratories, Inc.), anti-mouse IgG/HRP (Invitrogen Corp.), or anti-hFc/HRP (Cosmo Bio Co., Ltd., The binding site) was added at 100 μL/well to the plates and incubated at 37° C. After 1 hour, the plates were washed with PBST, and TMB (Sigma-Aldrich Corp.) was added at 100 μL/well to the plates to develop color. After 30 minutes, the reaction was terminated with 2 N sulfuric acid, and the color values (O.D. 450 nm/650 nm) were measured using a microplate reader (Molecular Devices, Inc.).

IC50 (read off the curve) [1]: ~0.2 µg/mL
binding result [2]: binds
Neutralizing ability (IC50, nM) [3]: 0.007 nM
EC50 (read off the curve) [4]: ~0.02 µg/mL
B1: IgG molecule-type 4A6D (antibody, V domains shown)
VH: EVQLVESGGGLVQPGGSMRLSCTASGFTFDEYAMSWVRQAPGKGLEWVSGISTGGGGTYYADSVEGRFTISRDNSKNTLYLQMNSLRAEDTAVYYCAKPWLSGSRSGDFWGQGTLVTVSS
VL: QSALTQPASVSGSPGQSITISCTGTSSDVGGYNYVSWYQQHPGKAPKLLIYEVSHRPSGVSDRFSGSKSGNTASLTISGLQAEDEADYYCSSFTSSSSLYVFGTGTKLTVL
notes: detected with anti-hFc, so human constant regions; also called human anti-human IL-18 antibody 4A6D
